{"source": "patent US9475855B2", "about": "“Human Notch3 based fusion proteins as decoy inhibitors of Notch3 signaling” (THE TRUSTEES OF COLUMBIA UNIVERSITY IN THE CITY OF NEW YORK, priority 2008, dated 2016)", "molecules": {"B1": {"name": "N1ECDFc: Notch-based fusion protein or decoy: Notch1 extracellular domain EGF repeats fused to Fc; expressed from plasmid or adenovirus (Ad-N1ECDFc) (protein)", "chain": "ARGLRCSQPSGTCLNGGRCEVANGTEACVCSGAFVGQRCQDPSPCLSTPCKNAGTCYVVDHGGIVDYACSCPLGFSGPLCLTPLANACLANPCRNGGTCDLLTLTEYKCRCPPGWSGKSCQQADPCASNPCANGGQCLPFESSYICGCPPGFHGPTCRQDVNECSQNPGLCRHGGTCHNEIGSYRCACRATHTGPHCELPYVPCSPSPCQNGGTCRPTGDTTHECACLPGFAGQNCEENVDDCPGNNCKNGGACVDGVNTYNCRCPPEWTGQYCTEDVDECQLMPNACQNAGTCHNSHGGYNCVCVNGWTGEDCSDNIDDCASAACFQGATCHDRVASFYCECPHGRTGLLCHLNDACISNPCNEGSNCDTNPVNGKAICTCPRGYTGPACSQDVDECALGANPCEHAGKCLNTLGSFECQCLQGYTGPRCEIDVNECISNPCQNDATCLDQIGEFQCICMPGYEGVYCEINTDECASSPCLHNGRCVDKINEFLCQCPKGFSGHLCQYDVDECASTPCKNGAKCLDGPNTYTCVCTEGYTGTHCEVDIDECDPDPCHIGLCKDGVATFTCLCQPGYTGHHCETNINECHSQPCRHGGTCQDRDNYYLCLCLKGTTGPNCEINLDDCASNPCDSGTCLDKIDGYECACEPGYTGSMCNVNIDECAGSPCHNGGTCEDGIAGFTCRCPEGYHDPTCLSEVNECNSNPCIHGACRDGLNGYKCDCAPGWSGTNCDINNNECESNPCVNGGTCKDMTSGYVCTCREGFSGPNCQTNINECASNPCLNQGTCIDDVAGYKCNCPLPYTGATCEVVLAPCATSPCKNSGVCKESEDYESFSCVCPTGWQGQTCEIDINECVKSPCRHGASCQNTNGSYRCLCQAGYTGRNCESDIDDCRPNPCHNGGSCTDGVNAAFCDCLPGFQGAFCEEDINECATNPCQNGANCTDCVDSYTCTCPTGFNGIHCENNTPDCTESSCFNGGTCVDGINSFTCLCPPGFTGSYCQYDVNECDSRPCLHGGTCQDSYGTYKCTCPQGYTGLNCQNLVRWCDSAPCKNGGKCWQTNTQYHCECRSGWTGFNCDVLSVSCEVAAQKRGIDVTLLCQHGGLCVDEEDKHYCHCQAGYTGSYCEDEVDECSPNPCQNGATCTDYLGGFSCKCVAGYHGSNCSEEINECLSQPCQNGGTCIDLTNTYKCSCPRGTQGVHCEINVDDCHPPLDPASRSPKCFNNGTCVDQVGGYTCTCPPGFVGERCEGDVNECLSNPCDPRGTQNCVQRVNDFHCECRAGHTGRRCESVINGCRGKPCRNGGVCAVASNTARGFICRCPARFEGATCENDARTCGSLRCLNGGTCISGPRSPTCLCLGSFTGPECQFPASSPCVGSNPCYNQGTCEPTSESPFYRCLCPAKFNGLLCHILDYSFTDLGPG", "modifications": "left off: a dimerising Fc or GST"}}, "key": {"MT1-MMP": {"test_system": "MT1-MMP", "test": "RT-PCR analysis of MT1-MMP expression in HUVEC", "format": "cell-based, human", "experimental": "(§1) FIGS. 24A-B show gelatin zymography analysis of MMP-9 and MMP-2 activity stimulated by VEGF in HUVEC. […] Transduced HUVEC were cultured on fibrin gel on the indicated day (i.e. D2, D4, D6, D8). Similar results were also obtained by using collagen gel, although induction of MMP-9 was stronger on fibrin gel than collagen gel (data not shown). […] HUVEC were transduced with Ad-N1ECDFc at the indicated doses and condition medium was collected from HUVEC cultured on collagen gel at day 4. FIGS. 24C-D show up-regulation of MMP-9 and MT1-MMP with Notch signaling. HUVEC were transduced with either Ad-LacZ or Ad-N1IC at 40 MOI. Numbers show PCR cycles. […] HUVEC were transduced with Ad-VEGF in the absence or presence of co-transduction of Ad-N1ECDFc at 40 MOI each. Ad-LacZ was co-transduced to make the same total amount of adenovirus at 80 MOI.\n(§2) Requisition of MMPs for angiogenic sprouting has been established by synthetic MMP inhibitors (16). GM6001 is one broad inhibitor against MMPs including MMP2, MMP9 and MT1-MMP (18)."}, "[1]": {"test_system": "VEGF-induced angiogenesis", "test": "mouse Dorsa Air Sac (DAS) assay", "format": "in vivo", "description": "These Figures show the role of Notch signaling in VEGF-dependent in vivo angiogenesis. FIGS. 25A-25D show inhibition of VEGF-induced angiogenesis with N1ECDFc in mouse DAS assay. Representative photographs are shown. FIG. 25A show subcutaneous induced angiogenesis with 293/VEGF transfectant versus 293/VEGF also expressing Notch decoy (Notch-based fusion protein) N1ECDFc. […] MDA-MB-231 breast cancer cells produce VEGF (data not shown)."}, "MMP2": {"test_system": "MMP2", "test": "gelatin zymography of conditioned medium, MMP-2", "format": "cell-based, human", "conditions": "co-transduction with Ad-VEGF, collagen gel, day 4", "experimental": "as §1, §2"}, "Notch1 signaling": {"test_system": "Notch1 signaling", "test": "co-culture assay of ligand-induced Notch signaling (CSL-luciferase reporter; HeLa expressing Notch1, ligand-expressing 293/Bosc cells)", "format": "cell-based", "conditions": "for activation of Notch1 signaling by Notch ligands: N1ECD/Fc expression vector co-transfected with full-length Notch1 and CSL-luciferase reporter in HeLa cells, co-culture with ligand expressing cells", "experimental": "Notch and Notch responsive transcriptional reporters are expressed in a “Notch-responsive” cell, HeLa. Notch ligands, Jagged-1, Delta-like 1, or Delta-like 4 are expressed in a “ligand-presenting” cell, 293. Expression is mediated by transfection of individual cell populations, cells are co-cultured, and then assayed for Notch-dependent reporter activity.\nTo determine ligand-induced Notch signaling, co-culture assays were performed using HeLa and 293-derived Bosc cells. Transient transfections were performed by calcium phosphate precipitation. Hela cells plated 1-day prior in 10-cm plates at 1.5×10^6 were transfected with 333 ng of pBOS Notch1, 333 ng pGA981-6, and 83 ng pLNC lacZ with either 666 ng pCMV-Fc or pHyTC-N1ECDFc (333 ng for x1, 666 ng for x2). Bosc cells plated 1-day prior in 10-cm plates at 4×10^6 were transfected with either 680 ng pHyTc-Jagged1, pHyTc-Dll1, pHyTc-Dll4, or pHyTc-x (empty vector). One day after transfection, the cells were co-cultured in triplicate (HeLa:Bosc, 1:2) on 12-well plates for 24 hours. Cells were harvested and luciferase activity was determined 2-days post-transfection using the Enhanced Luciferase assay kit (BD PharMingen), and […] activity was determined using the Galacto-Light Plus kit (PE Biosystems). All assays were performed in a Berthold dual-injection luminometer.\nAn in vitro co-culture system (FIG. 3) with ligands expressed on one cell and Notch receptor activation scored in another cell was used to measure transcriptional activation of the Notch pathway. […] The N1ECD/Fc expression vector was co-transfected at different ratios with full-length Notch1 and the CSL-luciferase reporter in HeLa cells, followed by co-culture with ligand expressing 293 cells. We observed that activation of Notch1 signaling by Notch ligands was reduced by N1ECD/Fc expression. […] Notch1ECD/Fc could block signaling mediated by Jagged1, Delta-like 1 or Delta-like 4."}, "MMP9": {"test_system": "MMP9", "test": "RT-PCR analysis of MMP9 expression in HUVEC", "format": "cell-based, human", "experimental": "as §1, §2"}, "HUVEC": {"test_system": "HUVEC", "test": "HUVEC proliferation (CCK-8 kit)", "format": "cell-based, human", "conditions": "transduced N1ECDFc, complete medium, 4 days", "experimental": "These Figures show proliferation of Ad-VEGF165-transduced HUVEC. HUVEC were transduced with Ad-VEGF165 at the indicated dosages. Ad-LacZ was also co-infected to make the same total amount of adenovirus at a MOI of 40 pfu/cell. HUVEC were suspended in SFM supplemented with 1% FBS and then plated at 1×10^4 cells/well in 24-well multi-wll plates with 0.4 ml of medium. After 4 days, cell numbers were determined using the CCK-8 kit and the results are indicated as the ratio of cell numbers determined to the number of control cells, which were transduced with Ad-GFP at a MOI of 40 pfu/cell. […] Ad-VEGF-transduced HUVEC were treated with SU5416 at the indicated dosages.\nThese Figures show the effect of alteration of Notch signaling on cell proliferation. The cells were transduced with the indicated adenoviruses. Ad-GFP was also co-infected to make the same total amount of adenovirus at a MOI of 60 pfu/cell. After 4 days, cell numbers were determined using the CCK-8 kit and results are indicated as the ratio of cell numbers determined to the number of control cells, which were transduced with AD-GFP at MOI of 60 pfu/cell. […] Transduced HUVEC were suspended in complete medium and then plated at 1×10^4 cells/well in 24-well multiwell plates with 0.4 ml of indicated medium (□: Ad-N1IC; ▪: Ad-N1ECDFc). […]"}, "[2]": {"conditions": "Ad-N1ECDFc infection alone, Ad-LacZ infected HUVEC (data not shown)"}, "[3]": {"conditions": "Ad-VEGF-HUVEC, co-transduction at 40 MOI each"}, "[4]": {"conditions": "in vivo assays to model VEGF-induced skin neovascularization"}}}
{"molecule": "B1", "values": [{"measurement": "expression of MT1-MMP", "setting": "MT1-MMP; [2]", "result": "did not affect"}, {"measurement": "VEGF-induced up-regulation of MT1-MMP mRNA", "setting": "MT1-MMP; [3]", "result": "inhibited"}, {"measurement": "in vivo angiogenesis induced by MDA-MB-231", "setting": "[1]; adenovirus mediated expression of N1ECDFc, compared to adenovirus expressing LacZ", "result": "clearly inhibited"}, {"measurement": "in vivo angiogenesis induced by 293/VEGF", "setting": "[1]; coexpression of N1ECDFc, compared to 293/VEGF alone", "result": "clearly inhibited"}, {"measurement": "VEGF-induced neo-vascularization", "setting": "[1]; [4]", "result": "blocks"}, {"measurement": "induction of VEGFR-1 expression", "setting": "[1]; [4]", "result": "blocks"}, {"measurement": "activation of MMP2", "setting": "MMP2", "result": "inhibition"}, {"measurement": "concentration-dependency of inhibiting signaling", "setting": "Notch1 signaling; 2:1 ratio of N1ECD/Fc to Notch1 compared with 1:1 ratio", "result": "more effective"}, {"measurement": "activation of Notch1 signaling by Notch ligands", "setting": "Notch1 signaling", "result": "inhibition"}, {"measurement": "activation of Notch1 signaling by Notch ligands", "setting": "Notch1 signaling; listed as N1ECD/Fc", "result": "reduced"}, {"measurement": "signaling mediated by Delta-like 1", "setting": "Notch1 signaling; co-culture with Delta-like 1 expressing cells", "result": "block"}, {"measurement": "signaling mediated by Delta-like 4", "setting": "Notch1 signaling; co-culture with Delta-like 4 expressing cells", "result": "block"}, {"measurement": "signaling mediated by Jagged1", "setting": "Notch1 signaling; co-culture with Jagged1 expressing cells", "result": "block"}, {"measurement": "expression of MMP9", "setting": "MMP9; [2]", "result": "did not affect"}, {"measurement": "VEGF-induced up-regulation of MMP9 mRNA", "setting": "MMP9; [3]", "result": "inhibited"}, {"measurement": "proliferation of HUVEC", "setting": "HUVEC", "result": "did not clearly alter"}]}
